Entries after “also recorded” stand apart in the source; their conditions may differ.
Key:
Type in all cases: cell-based, human
melanoma cell lines [1] = assay: IFNγ stimulation of melanoma cell lines, flow cytometry for HLA-DR and PD-L1; settings: for HLA-DR surface expression: 100 ng/mL; for HLA-DR expression by flow cytometry: Example 5
Experimental: (§1) FIGS. 3A-F show characterization of MHC-II(+) melanoma cell lines. Melanoma cell lines were treated with IFNy for 24 h before collection and live-cell staining and flow cytometry analysis for (A) MHC-I (HLA-A/B/C), (B) MHC-II (HLA-DR), and (C) PD-L1. Bars represent mean ±S.E.M. for at least three experiments (D) Representative flow plots from (C). (E) Western blot analysis of melanoma cell lines after 24 or 48 h of IFNy stimulation. (F) Phosphorylation of STAT1 (top row) and STAT5 (bottom row) in melanoma cell lines at 15 min after IFNy stimulation. Histograms were coloured according to the arcsinh transformed ratio or MFI medians relative to the table minimum value.
FIGS. 4A-D show graphs illustrating mean expression levels of MHC-I, MHC-II, and PD-L1 at baseline and after IFNy stimulation. Melanoma cell lines were treated with 100 ng IFNy for 24 hr (shown as percentage positive in FIGS. 2A-C) prior to harvest and live-cell staining and flow cytometry analysis for (A) MHC-I/HLA-A/B/C, (B) MHC-II/HLA-DR, and (C) PD-L1. Bars represent mean fluorescence intensity ±SEM for 3 experiments. (D) Histograms of HLA-DR surface expression over an extended (24-72 hr) IFNy treatment, as assessed by flow cytometry.
Cell surface expression mirrored mRNA expression patterns; MHC-I (HLA-A/B/C) was expressed ubiquitously among all cell lines under both basal and stimulated conditions, while MHC-II (HLA-DR) was present only on the intermediate/Ib (SKMEL5 and SKMEL28) and high/Ia cell lines (WM115 and A375; FIGS. 3A-C and 4A-D). […] The high (Ia) WM115 cell line was essentially 100% positive for HLA-DR at both basal and stimulated conditions.
Standard Flow Cytometry. Flow cytometry was performed using the following antibodies: HLA-DR/PE-Cy7 (Biolegend, clone L243. 1:20). CD274/PD-L1/APC (Biolegend, clone 29E.2A3, 1:200) and HLA-A/B/C-Alexa Fluor488 (1:100, Biolegend, clone W6/32) mouse MHC-II (I-A/I-E 1:20 Biolegend, clone M5/114.15.2). DAPI was used as a viability dye. Samples were analyzed on an Aria III laser system (BD Biosciences)
Cell and tumor culture. SKMEL-28 and WM115 cell lines were obtained from Dr. Kimberly Dahlman (Vanderbilt University), CHL-1 and HMCB melanoma cell lines were obtained from the laboratory of William Pao (Vanderbilt University). Cell line nature was not directly authenticated, but protein marker expression was consistent with published HLA-DRA mRNA expression patterns (CCLE). Cell lines were confirmed mycoplasma-free and cultured in DMEM containing 10% FBS. Stimulation with recombinant human IFNγ (R&D Systems) was performed at 100 ng/mL. For PDX models and ex-vivo organotypic culture, tumors were freshly resected and sectioned using an Alto tissue matrix sectioner (Roboz Surgical, Gaithersburg, Md.).
Methods. MHC-I/II mRNA was profiled across 60 MEL cell lines. The transcriptional characteristics of MHC-II+ cell lines were analyzed by Gene Set Analysis. Cell surface expression of MHC-I and MHC-II was confirmed by flow cytometry (FC) in a subset of cell lines under basal and stimulated (IFNγ) conditions. In 26 tumor samples from αPD-1 treated MEL patients, immunohistochemistry (IHC) was performed for HLA-DR (MHC-II) or HLA-A (MHC-I), SOX10, CD4 and CD8. IHC results were correlated with response and progression-free survival (PFS).

[2] = tested on: PDX tumors from melanoma patients PT1 and PT2; assay: Ex vivo organotypic culture of PDX tumour slices with or without IFNγ, Western blot for HLA-DR; settings: PT1 (anti-PD-1 non-responder) and PT2 (responder) PDX, 24-48 h
Source text: FIGS. 6A-D show Ex vivo culture of tumours derived from anti-PD-1-responding and non-responding patients identifies heterogeneity in interferon response. (A) Patient tumour blocks stained for HLA-DR (brown) and SOX10 (pink) at low (scale bar, 500 um) and high magnification (scale bar, […]); PT1: anti-PD-1 non-responder and PT2: anti-PD-1 responder. (B) Experimental schema. (C) Schema and images of PDX tissue sections (ex vivo organotypic culture). (D) Western blot analysis of tissue sections cultured in the presence or absence of IFNy for 24-48 h.
To test this hypothesis, patient-derived xenograft (PDX) models were utilized from the tumor resections of two melanoma patients who subsequently received anti-PD1 therapy; patient 1 (PT1; non-responder, 0% HLA-DR-positive, class II/III) and patient 2 (PT2; partial responder, heterogeneous 15% HLA-DR-positive, class Ib) (FIG. 6A). […] The resected tumors from PT1 and PT2 were serially transplanted to athymic nu/nu mice, which are highly deficient in functional T cells, ruling out a possible source of IFNγ (FIG. 6B). […] Thus, HLA-DR may be a marker of IFNγ activity in the microenvironment of some (but not all) tumors.
Cell and tumor culture. SKMEL-28 and WM115 cell lines were obtained from Dr. Kimberly Dahlman (Vanderbilt University), CHL-1 and HMCB melanoma cell lines were obtained from the laboratory of William Pao (Vanderbilt University). […]

melanoma cell lines [3] = assay: IFNγ stimulation of melanoma cell lines, Western blot and phospho-flow (STAT1, STAT5, CIITA)
Experimental: as §1
Immunoblotting Immunoblotting was performed as previously described^32 Briefly, cells were washed in cold phosphate-buffered saline, collected and lysed in 1×RIPA buffer (50 mM Tris (pH 7.4), 1% NP-40, 150 mM NaCl, 1 mM EDTA, 0.1% SDS, 0.25% sodium deoxycholate, 5 mM NaF, 5 mM Na3VO4, 10% glycerol, […] phenylmethyl-sulphonylfluoride and protease inhibitors) for 30 min on ice. Lysates were sonicated for 2-3 s to shear DNA and cleared by centrifugation at 13,200 r.p.m. for 15 min. Protein concentrations of the lysates were determined by BCA assay (Bio-Rad, Hercules, Calif.). Samples were separated by SDS-PAGE and transferred to nitrocellulose membrane. Membranes were blocked with 5% non-fat dry milk or 5% bovine serum albumin in tris-buffered saline with 0.1% Tween-20 for 1 h at room temperature and then incubated overnight at 4° C. with the appropriate antibody as indicated. Following incubation with appropriate horseradish peroxidase-conjugated secondary antibodies, proteins were visualized using an enhanced chemiluminescence detection system. […]
Phospho-flow cytometry. […] Samples were analyzed on a LSRII system (BD Biosciences). […]

B1: IFNγ: recombinant human IFNγ (R&D Systems) used at 100 ng/mL to stimulate melanoma cell lines and tumour slices (protein, UniProt P01579 24-161, looked up)
Interferon gamma: QDPYVKEAENLKKYFNAGHSDVADNGTLFLGILKNWKEESDRKIMQSQIVSFYFKLFKNFKDDQSIQKSVETIKEDMNVKFFNSNKKKRDDFEKLTNYSVTDLNVQRKAIHELIQVMAELSPAAKTGKRKRSQMLFRG
HLA-DR surface expression (melanoma cell lines [1]; CHL-1 or HMCB cells, up to 72 hrs): No significant increase | HLA-DR expression by flow cytometry (melanoma cell lines [1]; MHC-II+ (mRNA) cell lines): constitutive and inducible | HLA-DR expression by flow cytometry (melanoma cell lines [1]; MHC-II− cells): did not express or induce | HLA-DR surface expression (melanoma cell lines [1]; SKMEL28 (intermediate/Ib), 25% positive at baseline, 24 h): potently induced | PD-L1 expression (melanoma cell lines [1]; all cell lines tested, 24 h stimulation): significantly upregulated; also recorded: potently induced | HLA-DR upregulation in cultured tissue slices [2]: only the PT2 PDX model (anti-PD-1 responder) upregulated HLA-DR | CIITA expression (melanoma cell lines [3]; Western blot, 24 or 48 h stimulation): only induced in HLA-DR+Ia/Ib cells | STAT1 activation (melanoma cell lines [3]; all cell lines, Western blot 24 or 48 h, phospho-flow 15 min): robustly activated | STAT5 activation (melanoma cell lines [3]; phospho-flow, 15 min stimulation, 100 ng/mL): preferentially activated by IFNγ in MHC-II(−) cell lines

Reference: patent US10969392B2, “Methods and systems for predicting response to immunotherapies for treatment of cancer” (Vanderbilt University, priority 2015, dated 2021)
